Positions count from the first letter of the chain named.
T1: membrane-anchored human Ang2 protein expressed on CHO-K1 cells (human, UniProt O15123 19-496)
T1 chain: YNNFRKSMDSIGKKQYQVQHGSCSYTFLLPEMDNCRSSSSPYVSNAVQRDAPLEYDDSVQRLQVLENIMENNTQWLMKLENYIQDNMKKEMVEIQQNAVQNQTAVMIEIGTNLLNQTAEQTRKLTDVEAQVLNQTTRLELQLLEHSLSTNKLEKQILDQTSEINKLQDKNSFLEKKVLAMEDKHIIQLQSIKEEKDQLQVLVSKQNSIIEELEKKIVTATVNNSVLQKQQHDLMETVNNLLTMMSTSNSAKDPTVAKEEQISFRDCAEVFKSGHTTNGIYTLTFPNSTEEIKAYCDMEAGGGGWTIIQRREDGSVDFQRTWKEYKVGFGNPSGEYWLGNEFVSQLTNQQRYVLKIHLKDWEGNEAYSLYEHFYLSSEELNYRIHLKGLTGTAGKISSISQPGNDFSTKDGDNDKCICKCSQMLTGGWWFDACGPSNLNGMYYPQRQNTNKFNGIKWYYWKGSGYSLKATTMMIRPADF

T2: membrane-anchored cyno Ang2 protein expressed on CHO-K1 cells (cyno, UniProt A0A2K5VNX6 19-496)
T2 chain: T1 chain with E258G, I279V, F284L, I291V, G410A, A468G, D477G

T3: human Ang2 protein (R&D Systems, 623-AN-01M/CF; 623-AN/CF) (human, UniProt O15123 19-496)
T3 construct: Bought recombinant protein; also called Ang2 proteins; angiopoietin-2
T3 sequence (looked up): T1 chain

T4: human Ang2 protein (R&D Systems, 623-AN-01M/CF; 623-AN/CF) (human, UniProt O15123 19-496)
T4 chain: T1 chain

T5: mouse Ang2 protein (R&D Systems, 7186-AN-025/CF) (mouse, UniProt O35608 19-496, limits assumed)
T5 construct: Bought recombinant protein
T5 sequence (looked up): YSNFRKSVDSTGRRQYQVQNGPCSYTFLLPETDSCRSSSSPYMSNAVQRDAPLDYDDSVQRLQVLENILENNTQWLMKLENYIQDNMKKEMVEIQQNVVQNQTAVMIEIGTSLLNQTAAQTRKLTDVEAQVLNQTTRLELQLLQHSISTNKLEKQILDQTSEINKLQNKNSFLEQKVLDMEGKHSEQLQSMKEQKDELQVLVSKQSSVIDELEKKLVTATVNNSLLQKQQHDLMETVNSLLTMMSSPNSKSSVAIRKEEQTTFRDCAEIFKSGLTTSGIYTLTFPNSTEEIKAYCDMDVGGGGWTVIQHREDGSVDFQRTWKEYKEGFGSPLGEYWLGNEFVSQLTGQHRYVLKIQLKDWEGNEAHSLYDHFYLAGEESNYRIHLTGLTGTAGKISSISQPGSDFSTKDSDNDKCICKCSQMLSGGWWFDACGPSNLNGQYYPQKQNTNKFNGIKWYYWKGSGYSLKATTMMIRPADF

B1: 42A2A6 (antibody, V domains shown)
VH: DVQLQESGPGLVKPSQSLSLTCTVTGYSITSDYAWNWIRQFPGNKLEWMGFINYSGTTSYNPSLKSRISLTRDTSKNQFFLQLNSVTTEDTATYYCARWGYSDFLYYFDYWGQGTTLTVSS
VL: QIVLSQSPAILSASPGEKVTMTCRASSSVSYIHWYQQKPGYSPKPWIYATSNLASGVPARFSGGGSGTSYSLTISRVEAEDAATYYCQQWSNNPWTFGGGTKLEIK
notes: Hybridoma antibody purified with Protein-A beads
B2: 46F3H4 (antibody, V domains shown)
VH: EVQLHQSGPELVKPGASVKMSCKASGYTFTNYYIHWVKQSHGKSIEWIGYIYPNNGDTTYNQKFKGKATLTVDKSSSIAYMELRSLTSEDSAVYYCAVVSYSNYVAGAMDYWGQGTSVTVSS
VL: SIVMTQTPKFLLVSAGDRVTITCKASQSVSNDVAWYQQKPGQSPKLLIYFASNRYTGVPDRFTGSGYGTDFTFTISTVQAEDLAVYFCQQDYSSPYTFGGGTKLEIK
notes: as for B1
B3: 42C3A4 (antibody, V domains shown)
VH: EVKLEESGGGLVQPGGSMKLSCVASGITFSNYWMDWVRQSPEKGLEWVAEIRLKSNNYATHYAESVKGRFTISRDDSKNSVYLQMNNLRAEDTGIYYCTRGAPLFGGYYKGVYFDYWGQGTTLTVSS
VL: B2 VL with I2F, F10S, V13A, K24Q, D32E, F50Y, N53S, T63A, S93N
notes: as for B1
B4: 49E4C2 (antibody, V domains shown)
VH: B3 VH with N79S, G106D
VL: B2 VL with I2T, F10S, V13A, T20A, D32E, Q42L, F50Y, S93N
notes: as for B1
B5: 15B4C6 (antibody, V domains shown)
VH: QVQLKESGPGLVAPSQSLSITCTVSGFSLNGYGVNWVRQPPGKGLEWLGLIWNNGSTDYNSALKSRLTISKDNSKSLVFLKMNSLQTDDTARYYCARDPLYLLRGAMDYWGQGTSVTVSS
VL: DIVLTQSPASLTVSLGQRATISCRASKSVSSSGYNFIYWYQQKPGQPPKLLIYLASNLESGVPARFSGSGSGTDFTLNIHPVEEEDAATYYCQHSRDLPLTFGAGTKLELK
B6: 7F10B2 (antibody, V domains shown)
VH: EVQLQQSGPELVKPGSSVKISCKTSGYTFTDYNMDWVKQSHGKSLEWIGTINPKNGETSDNQKFKAKATLTVDKSSSTAYMELRSLTSEDSAVYYCAKNVDYSNYLFFPMDYWGQGTSVTVSS
VL: SIVMTQTPKFLLVSAGDRVTITCKASQSVSNDVAWYQQKPGQSPKLLIYYASNRFTGVPDRFTGSGYGTDFTFTITTVQAEDLAVYFCQQDYSSRTFGGGTKLEIK
B7: 33A3E2 (antibody, V domains shown)
VH: EVKLVESGGGLVQPGGSRKLSCAASGFTFSDYGMVWVRQAPGKGLEWVAYIGSGRSTIYYADTVKGRFTISRDNPKNTLFLQMSSLRSEDTAMYYCAREDNGYSYAMDYWGQGTSVTVSS
VL: DIQMTQSPASQSASLGESVTITCLTSQTIGTWLAWYQQKPGKSPQLLIYAATSLADGVPSRFSGSGSGTKFSFKISSLQAEDFVSYYCQQLYSIPLTFGAGTKLELK
B8: 39C1C4 (antibody, V domains shown)
VH: B7 VH with S56N, A97V
VL: B7 VL with T25A
B9: 49B8G4 (antibody, V domains shown)
VH: B7 VH with V48I, S56N
VL: B7 VL with I21V, T25A, V84G, A100V
B10: 45C5A1 (antibody, V domains shown)
VH: EVKLVESGGGLVQPGGSLKLSCAASGFTFSNYTMSWVRQTPEKRLELVAEISNSDGSAYYPDTVKGRFTISRDNAKKTLYLQMSSLKSEDTAMYYCARHGGLRVYYAIDYWGQGTSVTVSS
VL: DIQMTQSPASQSASLGESVTITCLASQTIGPWLAWYQQKPGKSPQLLIYAATSLADGVPSRFSGSGSGTKFSFKISSLQAEDFVSYYCQQLYSDPLYTFGGGTKLEMK
B11: 15H10D12 (antibody, V domains shown)
VH: DVQLQESGPGLVKPSQSLSLTCTVTGYSITSDYAWNWIRQFPGNRLEWMGYINYSGSTDYNPSLKSRISITRDTSKNQFFLQLNSVTTEDTATYYCARGVRGDMDYWGQGTSVTVSS
VL: B2 VL with F50Y, E81D, Y96F, G100S
B12: 31E2D4 (antibody, V domains shown)
VH: QIQLVQSGPELKKPGETVKISCKASGYTLTNYGMNWVKQAPGKGLKWMGWINSYSGVPTYADDFKGRFAFSLETSASTAYLQINNLKNEDTATYFCARGENNYYGGSYDWGQGTTLTVSS
VL: B2 VL with F50Y, Y96L, G100A, I106L, K107R
B13: 27H11B5 (antibody, V domains shown)
VH: DVQLQESGPGLVKPSQSLSLTCTVTGYSITSDYAWNWIRQFPGNKLEWMGYISYSGSTSYNPSLKSRISITRDTSKNQFFLQLNSVTTEDTATYYCARCVYGNYVGAMDYWGQGTSVTVSS
VL: B2 VL with S30T, F50Y, A80T, Y96L, G100A, I106L
B14: 17F3E8 (antibody, V domains shown)
VH: B2 VH with S44T, Y52H, T59S, G66D, I78T, E82D, A97S, N103H, M109L, Y111N
VL: B2 VL
B15: 50H8E5C5 (antibody, V domains shown)
VH: B2 VH with I34M, T59N, I78T, Y95S
VL: B2 VL
B16: 25C5D6F3 (antibody, V domains shown)
VH: EVNLVESGGGLVQPGGSLRLSCATSGFTFSDFYMEWVRQPPGKRLEWIAASRNKANDYTTEYSASVKGRFIVSRDTSQSILYLQMNALRAEDTAIYYCTRGSYTNYTWFAYWGQGTLVTVSA
VL: B2 VL

Target: T1, membrane-anchored human Ang2 protein …
Test: FACS

EC50 [nM]	Binder
7.84	B1
6.33	B2
0.155	B3
0.14	B4

Target: T2, membrane-anchored cyno Ang2 protein …
Test: FACS

EC50 [nM]	Binder
3.88	B1
18.8	B2
8.13	B3
29.4	B4

target: T3, human Ang2 protein (R&D Systems, …); test: indirect ELISA, human Ang2 coated at 0.5 µg/ml
Protocol: (§1) The antibodies were tested for their binding activities to Ang2 in an indirect ELISA. Briefly, 100 μl of 0.5 μg/ml human or mouse Ang2 proteins (R&D Systems; 623-AN-01M/CF for human Ang2, 7186-AN-025/CF for mouse Ang2) were pre-coated onto ELISA plates overnight at 4° C. On the next day, the plates were incubated with […] diluted primary antibodies, with initial concentration at 1 μg/ml. The plates were added with HRP-conjugated goat anti-mouse IgG (H+L) and then TMB for chromogenic reaction. The antibody-antigen binding curves were generated with optical density readings at 450 nm. Raw data was plotted using GraphPad Prism v6.02 software with four parameters, and best-fit values program was used to analyze the EC₅₀.

binding result	Binder
binds	B1
binds	B2
binds	B3
binds	B4

Target: T4, human Ang2 protein (R&D Systems, …)
Test: ELISA

EC50 [ng/mL]	Binder
11.2	B5
4.62	B6
5.59	B7
4.47	B8
4.57	B9
7.03	B10
9.87	B1
42.4	B2
11.4	B3
9.28	B11
6.6	B12
9.97	B13
12.2	B14
66.2	B15
17.6	B16
11	B4

target: T5, mouse Ang2 protein (R&D Systems, …); test: indirect ELISA, mouse Ang2 coated at 0.5 µg/ml
Protocol: as §1

Binder	binding result
B1	no binding (tested: initial concentration at 1 µg/ml)
B2	no binding (tested: initial concentration at 1 µg/ml)

From US20230312698A1 (NANJING GENSCRIPT BIOTECH, published 2023)
